Publication PMC5309844

Molecular target: full-length recombinant human NR1 protein (human) (UniProt Q05586)

recombinant human PDI, sequence (P07237 18-508): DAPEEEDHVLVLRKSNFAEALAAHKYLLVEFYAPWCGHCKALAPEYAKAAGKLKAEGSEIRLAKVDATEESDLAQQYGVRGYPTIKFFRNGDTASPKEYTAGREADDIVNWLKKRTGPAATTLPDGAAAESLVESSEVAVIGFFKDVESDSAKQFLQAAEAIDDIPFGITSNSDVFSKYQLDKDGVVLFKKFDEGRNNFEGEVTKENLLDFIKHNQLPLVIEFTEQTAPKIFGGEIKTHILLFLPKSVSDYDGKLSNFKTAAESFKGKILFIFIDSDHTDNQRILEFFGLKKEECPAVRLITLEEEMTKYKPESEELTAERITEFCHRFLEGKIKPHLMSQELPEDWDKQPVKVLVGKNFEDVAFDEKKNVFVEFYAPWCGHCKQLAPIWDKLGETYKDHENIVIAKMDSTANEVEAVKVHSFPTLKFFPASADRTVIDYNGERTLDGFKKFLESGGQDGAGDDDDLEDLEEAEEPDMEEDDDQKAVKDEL

- amount of thiols on recombinant NR1 protein after 2 h with recombinant PDI at room temperature (in vitro thiol reductase assay, modified biotin switch and Western blot), against vehicle: 3.2 fold
Substance: recombinant human PDI (from UniProt P07237 18-508) (enzyme)
